Assay results as given in patent US20060062780A1.

Experiments:
[1] = molecular target: MOG-reactive B-cell receptor on B cells of anti-MOG transgenic mice; assay: cell-based or functional assay
[2] = molecular target: MOG-reactive B-cell receptor on B cells of anti-MOG transgenic mice; assay: flow cytometry on splenocytes, goat-anti-human IgG FITC

ex vivo B cell depletion, splenocytes of anti-MOG transgenic mice, 10 µg/ml, 16 h [1]: 70%
percent of IgM-positive splenocytes that bound (% of IgM-positive splenocytes) [2]: > 90
Substance: MOG-Fc fusion protein
